pKd: −log10 of the molar value.

The target in this assay is Cys SARS2 Nsp1, fluorescein-labelled (SARS-CoV-2) (UniProt P0DTD1). The experiment in a line: fluorescence polarisation. Background: Polarisation of emitted light reports the rotation of a fluorescent probe.

By pKd is commonly meant −log10 of the Kd, conventionally taken in molar units. A lower pKd goes with a large Kd. Substance “40S ribosomal subunit purified from rabbit reticulocytes (complex)” had a pKd of 7.57.
